Measured values published in a protein production outcome set (Wang et al. 2014).

Experiment: label from the status in PepcDB records

Row | Sequence | protein production
1 | QGSVSTNLQEKGLVVSIVDTLMFDTGRAEVKPDFQKKLVEIGEILKTIDNYIRIEGHTDNTPISNSQYASNIELGSARSNNVEHLFIDVSKIPVTQMYTVSYADTRPVADNNSEAGKARNRRVDIVILNSK | failed
2 | EELIEIREARMDDLDTIAKFNYNLAKETEGKELDMDVLTKGVKALLLDERKGKYHVYTVFDKVVAQIMYTYEWSDWRNGNFLWIQSVYVDKEYRRKGIFNYLFNYIKNICDKDENIVGMRLYVEKENINAKATYESLNMYECDYNMYEYEVIHS | not failed
3 | EEGLEIATLKRIVADMHAAAETAGVHIVTGDTKVVPKGTCDKLYITTAGVGIIPEGRTSADPQIGDAIIVSGPIADHGMAVMMARGDLAISAPIESDTRSVNGQIEALYAAGVTPRWMRDATRGGLATVMNELARATGLGVALNDPLPVRDMTRAACDMLGIDPMYVANEGTFVAIVPADQVDTALATIPEASCIGQIVEQPAASVVLRTGFGGSRMVDMLVGDPLPRIC | failed
4 | MMKEMTVQQMTEKVLNKESLFILDVRNESDFRDWKIEGENFAYLNVPYFELVHGVDSIVDRLPKDQDIVVVCAKGGSAAFVAEQLAEAGFDNVYTLAGGMQAWSEHLHQAKVYEDDQLKIYQFIRVGKGCLSYMVLSGDEALVVDPLRFIDVYEQVAQQEGVTITHIVDSHLHADHLSGGKALAERTGAAYYLMKSEGAVFDFEPLEQHETIDFENVHLEVLAVKTPGHTPGSVSFFVNGKWLFSGDTIFVGGLGRPDLGGKVAEWAEDLYHTVYEKVAAMADDVIVLPAHYANLDEEINAEGYVGDTLGRIRARNEMMQNKAKDEFIDLVIQGAKTETPPNFEDIVAINRGLKTVDIETQRELEIGPNRCALHHTHA | failed
5 | MNITLLKSKIHRASVTEARLDYIGSISIDEKLLQASGILEYEKVQVVNVNNGARFETYTIATQEEGVVCLNGAAARLAEVGDKVIIMSYADFNEEEAKTFKPKVVFVDENNTATKITNYEKHGAIF | not failed
6 | MTFNKKEKLSITALLIILYLIPAGLEWLEFDSENLHVIAISLPIWLAFFYLGPFWLFYWTQQNKHVARLHVVAQGVLYVLMMFAGANIVSRLHSMAFPQYQFPIKEQGLSAFLWGVFIFSMTHMYLLYQRFVQEQRLRKEAQLADLTSRLNPHFLFNSLNTISALIHSSPDKADDVLHKLSDILRYSVDQQNKWVPLEHELAVCETYLTVEKARFTDNLNISWQIASSVDMRQLKVPPLLLQPLIENVMKHVKRRPIELLISVQAEQGKLIFKVKDNGKGFSEPSLNEQSKAGQGLNIVKQRVDIAGGELSLFNDTSEQGGAVCEITLPIHACV | failed
7 | METQFHGGDGEDPWLARDKLYHVIFCFSISLIFSTLASFSRYSFLRRHSIWIGSAFSLAAGAAKEAADQIGIFPSAGASVRDAVADAIGVVIAALVLLLWKSRRSRTRPILPI | failed
8 | DFRASATRPFTGEEYLASLRDDREIYIYGDRVKDVTSHPAFRNAAASMARLYDALHDPQSKEKLCWETDTGNGGYTHKFFRYARSADELRQQRDAIAEWSRLTYGWMGRTPDYKAAFGSALGANPGFYGRFEDNAKTWYKRIQEACLYLNHAIVNPPIDRDKPVDQVKDVFISVDEEVDGGIVVSGAKVVATNSALTHYNFVGQGSAQLLGDNTDFALMFIAPMNTPGMKLICRPSYELVAGIAGSPFDYPLSSRFDENDAILVMDKVFIPWENVLIYRDFERCKQWFPQGGFGRLFPMQGCTRLAVKLDFITGALYKALQCTGSLEFRGVQAQVGEVVAWRNLFWSLTDAMYGNASEWHGGAFLPSAEALQAYRVLAPQAYPEIKKTIEQVVASGLIYLPSGVRDLHNPQLDKYLSTYCRGSGGMGHRERIKILKLLWDAIGSEFGGRHELYEINYAGSQDEIRMQALRQAIGSGAMKGMLGMVEQCMGDYDENGWTVPHLHNPDDIN | failed
9 | MPAPKKALRRSLTVTSAALTALALLSPAALAAPSPSTSPSATPPASMSGVGGARLGKPGTQVDLAGGAPVLPKDLTARSWIVADAESGDVLAAHNAHWELAPASTLKMLFADTLLPKWPKTTKRKVQVSDLAGIGSGSSMVGIKEEETYTVHDLWLGVFLRSGNDAVHVLSAMNDGVEKTVADMNAHAKELQAGDTTVVSPDGYDMPGQVSSAYDLTLFARSGLQKKDFREYASTVRAKFPGETKKDKKGKTSREPFEIQNTNRLLAGDADVEVYPGIAGVKNGYTTNAGNTFTGVAEQGGKVLLVTVMHPAEDKHNEVYKETARLFDWGFRAAGKVRPVGELVRPRSATAASPSAEASGEAGGTGKGGAGTKPVAGAAAGDGAGGAGVAAGIAAGVLALLAGGAFLINRKWPLPDLVRRRTRP | failed
10 | MRIKLIIVEGKTDESFFKVLLEKLYGFREAKKLTPEFPIGKWGFRIGEHPLVLEKDNIALVIIHAEGKQRIPKVLKSVLDSVKLGLLNVEEVYVVRDVDEGNDVFEWVLSFLREREVRVDNGAIVTEGVKIYPYGMGNLTLNEPFVKEKKELELSLAYLAKLDGILEKYRGSMRALSQDKGDKLTPKDVMHILSIANDYTGDCLSGLYEKYIGIMIHRNRELLIRFLSEVNLLPLLERMVG | not failed
11 | MVKHLQVRGRLYYRSLAHGLRLTMRRLLFCFLLVLTSLTAIAAEPARPKVGLVLSGGAARGLAHIGVLKALEEQGVRIDAIAGTSMGAVVGGLYASGYSVEELEKLATTLDWQQALSDAPPREDVPFRRKQDDRDFLVKQKLSFRDDGSLGLPLGVIQGQNLSLLLESKLAHTADTRDFDKLPIPFRAVATDIASGEKVVFRRGHLPQVIRASMSIPAVFAPVELDGRLLVDGGMVDNIPVDVAREMGVDLAIVVDIGTPLRDRKQLLTVVDVLNQSITLMTRRNSEEQLASLHRDDILIQPSLTAFGVTDFGRARHMIDAGYRATRLLDPRLAALRQLEGDASLAVARSPRQRTPVITAIRIENDSKVSDDVIRSYIRQPIDAPLELDRLQTDMGTLYGLDYFDRVQYRVVHKGNDHTLVINARGRRGGTDYLRLGLNLSDDLRGDSAFNLGASYRVNGINSLGAEWLTRGQIGDQQALYSEFYQPLDVGSRYFIAPYLDLGSQNIEATLDNDPVAEYRLERYGFGLNVGRQIGNSGEVRLGVGKAWGEAEVRIGDQDLPKVSFNEGFYELKYSFDTLDNVYFPHHGEDIGLTLRKYDKSLDSDQDYRQWLFTLDKAISSGPNTFVLGGSYGRTLDDTEVVTSSFVMGGARQLSGFREDSVSGQNASLLRMVYYRRLTPRAYVPLDFPLYIGGSLERGRAWNNDNEFDSGYINAASIFLGLDTPLGPLNFSYGANSAHEQAVYLNLGHTF | failed
12 | MSRSTLQPARISRVLPDSIAAEIGFEPGDAIISINGQQPRDLIDYQFLCSDEFLELEVLDAAGRSHQIEIEKDTDEGLGLEFETALFDGLIQCNNRCPFCFIDQQPPGKRESLYYKDDDYRLSFLYGSYLTLTNLSEAEWRRIAQLRLSPLYVSVHATEPDLRRRLLKNERAGLIGEQLHWFRQQQLQIHAQVVVCPDLNDGAQLQRTLMDLAEFHRGDPATVASVAVVPVGLTRFRPTEDELRPVQPADAAATIALVEALQTQFQTELGSRFAWLADEWYLIAGQPLPSASWYEQYPQLENGVGSIRAFISEFERQAATLPSQIEPARRLTWVVGNVVGQAFQPLQARLNAVQGLKVDLVGLASRYWGQTLTVTGLLTGQDLIEVLSDRDLGDGLLLPSLILLHGYRCFLDDLTVAEVEKALHTPIFVAEGITGLLTECLRSPLAATVQDH | failed
13 | MICKKLIQTILLGFAMCFYLLLGAGLNPTLAATLTQVESISQPRMQTLSEPRNLESGVDSFLTSIPAGYYTIATVEELKSLLKKSQPMLVDVREASEYRAGHIPNAINIPLRTLSQNLNQIPRTRPVVLYCSSGYRSAMGVMTLHLLGYENVQGFPPSFAGWKNAKEAMTYGRSKTIAS | failed
14 | MDRGGMKHREGGPGPRTEMSGYSVYEEENERLTENLKMKTSALKSLSIDIGNEVKYHNKMLGEMDSDFDSTGGLLGSTMGRLKILSRGSQAKLLCYMMLFAFFVFFVIYWFIKLR | failed
15 | MSNALATLASPADDIAFYEERLRAAMLTGDLKGLETLLADDLAFVDHTGCVKTKQTHLEPYRAGLLKLSRLDLSDAVVRAAGEDGRVVVVRAVTAGVYDGEAFTETLRFTRIWRRTQGPAGWKLVAGHCSVIL | not failed
16 | STISILATSDIHGNVLNYDYATGKAPTNTQGLAKVSSYVNSVRASKPNVMLIDDGDTIQGTPLSYYYDKIDTTSEYPLMKIMGAMKYDTWTLGNHEFNYGLPTLNRVISDARKENINVLSANTYNSDNTNFVNPYYIKTFNINGKTVNVGILGLTTKCIPDWEDPSHYAGLHFNDLVDEAKLWVPRMKAAGANVVIVAAHSGEEGAADTIPENQIKAIATNVSGIDAIVAGHAHVTVNDTSLKNPNGKTVPVVEPNKWGTFVSQIDITLDNSGNASTINTQNVKMTDSIPEDPNIVNIIQPYQNKTLDYIST | failed
17 | MSRVAPRDSAAQAASAVAESVRYQGRKASRQGSEQRRQAILDAAMRLIVRDGVRAVRHRAVAAEAQVPLSATTYYFKDIDDLITDTFALFVERNAEALSAFWSSVEGDLQEMAAVLADDPGARGSLVERIVELAVQYVQVQLTERREHLLAEQAFRQEALLNPRLRELADAHQRILSLGAVHFFQVLGSGQPEQDAKVLTSIILQMEYQGLVDGVEQLAVDEMRAILRRYLNLVMGL | not failed
18 | MVRRCETQRGRWDNKVNILKDTDKFGFDLGFQLQESKKRFGPDLGFCIKRFAPPILQMSLEENENGPKPTWQIRSNRETSKAIRSAPPLTFSSFTGVSLGRKLPNNKNPESSKTRQEGFDTVEEGLKGDRGRTSVDRSEYDGG | failed
19 | MATQARLPLPVGSTTSVSVVIPAKNVAAYVGETLASALAQGEVTEVIVVDDGSTDNTIAIVRAIRDPRLRLMTNDSAGVSAARNLGARHASGEWLLFLDADDRLRPGAVAALLAAARGAPRAVLVYGDYNTIDSEGRQVGRRDLLKGRRKPSGDVLTRLAASNFIVNGGIALARAEAFRAIGGFDTSLRYCEDWHCWCRLAAIGEFEFAPKLLLDYRLHTANTMNAAVRTPQDFFPAIARVFDDGLILARLPEGTAARLRQAAEIHLVTYSAMQAVRFGRYRQAFTYLGMVGRRSLKSLPRSALRVALACFGILEHHHHHH | failed
20 | MIRPARHIAAMSPYALAQLKAPAGKRLISLSQNESLRPPSRRAIEAAARAGDAGHLYPDPDWSALRAALSGLHGIPVEGILCGNGSMELIACLAQAFADERNAILAPAHGYPFFRSAAQMARARFDLAAERDRHVCVDAMLAAVQPDTRIVFVANPGNPTGTRIPRHELVRLREGLPDDTLLVIDEAYGEFADHLGEAMFDLVGRCDTVVLRTFSKAYGLAGMRVGWGLFPPEIARELRKVMNPNNIAVAGQLAATAALADQDYMVETCRQTAALRDGLRARLSKAGYDVPESFSNFVLIRMESPDDARRADEALRAEGVFLRPQGGVGLADSLRVTIGPAEKIDIAAGLLERWAEGKKT | failed
21 | MSVAILAQEKLGDCVLLTPLVRNLRQAFPDLEIHLITFSRASANFFMNDPQVTAVHLVKKQPRRYFREVLSRKFDLLFNTKDHPSTWFLLQSALIRARFKVGHNNPFHEGLYDRLLDTEFHAHMAVKNCALLPLLGVTADTEACRPSLEHHHHHH | not failed
22 | LNTNQLFAYLNRGDIAEFKFSPLFTTLFFPNVATFSTQNIMLDTLDIEEVTMSAFCSPMVGSQVQRDKGYETSTIKPGYMKPKHEIDPTKTIMRMAGEDPAQLNDPTYRRMRLITGNMRRQINAIKARVEWLAVNAVTTGKNIIEGEGIERYEIDWKIPEKNIIEQADGKKWSEQDKETHYPIYDIELYADQAGCPANVMIMGAEVWRTLRSFKKFRELYDLSRGSESAAELACKNLGEVVSFKGYLGDLALIVYSGKYTDSDGTEKYFLEPDLLVLGNTNNKGLVAYGAIMDQEAVRTGATQNMFYPKNWIEDGDPAIEYVQTHSAPQPVPADIRKFVTVKIA | failed
